Results reported in patent US20230303666A1 (published 2023).

Target: recombinant RBD (ThermoFisher, RP-87678) (SARS-CoV-2, UniProt P0DTC2 319-541)

B1: SR6v15 with GST tag (VHH, not shown: a dimerising Fc or GST)
VHH: EVQLVESGGGLVQAGDSLRLSCAASGDSYILWRMGWFRQAPGKEREFVAAISLDGQFTNYADSVRGRFSISADSAKYTVYLQMNSLKPEDTAVYYCAALPFLDYWGQGTQVTVSS
In the case of B1, the Kd is reported as 2.18 nM.
